From paper PMC6637015 come the findings set out here.

The target of assay [1] is c-Abl SH2 domain, 127-217 (UniProt P00520). The assay can be described thus: GST-SH2 pull-down from cell lysate. To be noted: reference: wild type; sites Y281.
Assay [2] has as its target c-Abl (UniProt P00520). The assay is described as follows: streptavidin precipitation of ligated FcRL1, c-Abl blot. To be noted: reference: wild type; sites Y281.
Assay [3] addresses c-Abl (UniProt P00520). The assay is described as follows: GSH-bead precipitation of co-expressed c-Abl–mCherry-GST. Particulars: reference: wild type, sites Y281.

As for “FcRL1 (Fc receptor-like 1) (from UniProt Q8R4Y0) Y281F”, the “binding against the reference” value in assay [1] and in assay [2] was “lost” each time.

Take “FcRL1 (Fc receptor-like 1) (from UniProt Q8R4Y0) Y281F, BCR ligation”: the “binding against the reference” value in assay [3] (BCR ligation) was “lost”.

Regarding “FcRL1 (Fc receptor-like 1) (from UniProt Q8R4Y0) Y281F, FcRL1 ligation”, the “binding against the reference” value in assay [3] (FcRL1 ligation) is given as “lost”.
